Results as given in patent US12286661B2, “Methods for making high intensity sweeteners” (Firmenich Incorporated, priority 2018, dated 2025).

B1: SEQ ID NO. 1052/1053: glycosyltransferase (DNA/protein SEQ ID NO) producing mogroside I from mogrol (protein, listed as Siraitia grosvenorii)
chain: MEKGDTHILVFPFPSQGHINPLLQLSKRLIAKGIKVSLVTTLHVSNHLQLQGAYSNSVKIEVISDGSEDRLETDTMRQTLDRFRQKMTKNLEDFLQKAMVSSNPPKFILYDSTMPWVLEVAKEFGLDRAPFYTQSCALNSINYHVLHGQLKLPPETPTISLPSMPLLRPSDLPAYDFDPASTDTIIDLLTSQYSNIQDANLLFCNTFDKLEGEIIQWMETLGRPVKTVGPTVPSAYLDKRVENDKHYGLSLFKPNEDVCLKWLDSKPSGSVLYVSYGSLVEMGEEQLKELALGIKETGKFFLWVVRDTEAEKLPPNFVESVAEKGLVVSWCSQLEVLAHPSVGCFFTHCGWNSTLEALCLGVPVVAFPQWADQVTNAKFLEDVWKVGKRVKRNEQRLASKEEVRSCIWEVMEGERASEFKSNSMEWKKWAKEAVDEGGSSDKNIEEFVAMLKQT
B2: SEQ ID NO. 1054/1055: glycosyltransferase (DNA/protein SEQ ID NO) producing mogroside I from mogrol (protein, listed as Barbarea vulgaris)
chain: MVSEITHKSYPLHFVLFPFMAQGHMIPMVDIARLLAQRGVKITIVTTPHNAARFENVLSRAIESGLPISIVQVKLPSQEAGLPEGNETFDSLVSMELLVPFFKAVNMLEEPVQKLFEEMSPQPSCIISDFCLPYTSKIAKKFNIPKILFHGMCCFCLLCMHVLRKNREILENLKSDKEHFVVPYFPDRVEFTRPQVPMATYVPGEWHEIKEDIVEADKTSYGVIVNTYQELEPAYANDYKEARSGKAWTIGPVSLCNKVGADKAERGNKADIDQDECLKWLDSKEEGSVLYVCLGSICSLPLSQLKELGLGLEESQRPFIWVVRGWEKNKELLEWFSESGFEERVKDRGLLIKGWSPQMLILAHHSVGGFLTHCGWNSTLEGITSGIPLLTWPLFGDQFCNQKLVVQVLKVGVSAGVEEVTNWGEEEKIGVLVDKEGVKKAVEELMGESDDAKERRKRVKELGQLAQKAVEEGGSSHSNITSLLEDIMQLAQSNN
B3: SEQ ID NO. 1056/1057: glycosyltransferase (DNA/protein SEQ ID NO) producing mogroside I from mogrol (protein, listed as Barbarea vulgaris)
chain: MVSEITHKSYPLHFVLFPFMAQGHMIPMVDIARLLAQRGVKITIVTTPHNAARFENVLSRAIESGLPISIVQVKLPSQEAGLPEGNETFDSLVSTKLLVPFFKAVNMLEEPVQKLFEEMSPQPSCIISDFCLPYTSKIAKKFNIPKILFHGMCCFCLLCMHVLRKNREILENLKSDKEHFVVPYFPDRVEFTRPQVPLATYVPGEWHEIKEDMVEADKTSYGVIVNTYQELEPAYANGYKEARSGKAWTIGPVSLCNKVGADKAERGNKADIDQDECLKWLDSKEEGSVLYVCLGSICSLPLSQLKELGLGLEESQRPFIWVVRGWEKNKELLEWFSESGFEERVKDRGLLIKGWSPQMLILAHHSVGGFLTHCGWNSTLEGITSGVPLLTWPLFGDQFCNQKLVVQVLKVGVSAGVEEVTNWGEEEKIGVLVDKEGVKKAVEELMGESDDAKEIRKRVKELGQLAHKAVEEGGSSHSNITSLLEDIMQLAQPNN
B4: SEQ ID NO. 1030/1031: CYP450 enzyme (DNA/protein SEQ ID NO) producing 11-OH cucurbitadienol (protein)
chain: MWTIGLCIVAVLVIYLSYRLNKWSNPKCNGILPPGSMGLPLIGETLQLIVPSYSLDLHPFIKKKAQKYGPIFRTSVAGSPIVVSIDPEFNHYIVKQEGRLVELWYLDSFSKLFSTEGENKTNAIGVVHKYIRSIALNHFGVDPLKEKLLPQIEEFVDKALQTWSSHPLVEMKHAASVMIFDFSAKLFISYDAENSPMKMSEKFTNILGGFMSFPLNIPGTTYHKCLKDRNEALSMLRKIFKERINSPKRHFEDLLDQAINDTDKEKFLPEDFIINVVFGLLFASFESISAALSLILNLLAEHPAVLQELTDEHKAILKNRESPNSILTWDEYKSMTFTHQVINEALRLGGVAPGLLRKALKDIEFKGYTIPAGWTIMLVNSAIQLNPNTYKDPLAFNPWRWKDLDSLFVSKNFMPFGGGIRQCVGAEYSKTFLATFLHVLVTKYRWTKVKGGTIVRNPILEFTDGLHIKFSAISN
modifications: Quercus suber
B5: SEQ ID NO. 889/890: CYP450 enzyme (DNA/protein SEQ ID NO) producing 11-OH cucurbitadienol (protein)
chain: MEVHWVCMCAATLLVCYIFGSKFVRNLNGWYYDVKLRRKEHPLPPGDMGWPLMGNLLSFIKDFSSGHPDSFINNLVLKYGRSGIYKTHLFGNPSIIVCEPQMCRRVLTDDVNFKLGYPKSIKELARCRPMIDVSNAEHRLFRRLITSPIVGHKALAMYLERLEEIVINSLEELSSMKHPVELLKEMKKVSFKAIVHVFMGSSNQDIIKKIGSSFTDLYNGMFSIPINVPGFTFHKALEARKKLAKIVQPVVDERRLMIENGQQEGDQRKDLIDILLEVKDENGRKLEDEDISDLLIGLLFAGHESTATSLMWSITYLTQHPHILKKAKEEQEEIMRTRLSSQKQLSFKEIKQMVYLSQVIDETLRCANIAFATFREATADVNINGYIIPKGWRVLIWARAIHMDSEYYPNPEEFNPSRWDDYNAKAGTFLPFGAGSRLCPGADLAKLEISIFLHYFLLNYRLERVNPECHVTSLPVSKPTDNCLAKVMKVSCA
modifications: Pathway step 3 sequence T CYP88D6 (codon optimized)
B6: SEQ ID NO. 1026/1027: CYP450 enzyme (DNA/protein SEQ ID NO) producing 11-OH cucurbitadienol (protein, listed as Cucumis sativus)
chain: MWTILLGLATLAIAYYIHWVNKWKDSKFNGVLPPGTMGLPLIGETIQLSRPSDSLDVHPFIQRKVKRYGPIFKTCLAGRPVVVSTDAEFNHYIMLQEGRAVEMWYLDTLSKFFGLDTEWLKALGLIHKYIRSITLNHFGAESLRERFLPRIEESARETLHYWSTQTSVEVKESAAAMVFRTSIVKMFSEDSSKLLTEGLTKKFTGLLGGFLTLPLNLPGTTYHKCIKDMKQIQKKLKDILEERLAKGVKIDEDFLGQAIKDKESQQFISEEFIIQLLFSISFASFESISTTLTLILNFLADHPDVVKELEAEHEAIRKARADPDGPITWEEYKSMNFTLNVICETLRLGSVTPALLRKTTKEIQIKGYTIPEGWTVMLVTASRHRDPEVYKDPDTFNPWRWKELDSITIQKNFMPFGGGLRHCAGAEYSKVYLCTFLHILFTKYRWRKLKGGKIARAHILRFEDGLYVNFTPKE
B7: SEQ ID NO. 1028/1029: CYP450 enzyme (DNA/protein SEQ ID NO) producing 11-OH cucurbitadienol (protein)
chain: MWTILLGLATLAIAYYIHWVNKWKDSKFNGVLPPGTMGLPLIGETIQLSRPSDSLDVHPFIQSKVKRYGPIFKTCLAGRPVVVSTDAEFNHYIMLQEGRAVEMWYLDTLSKFFGLDTEWLKALGLIHKYIRSITLNHFGAESLRERFLPRIEESARETLHYWSTQPSVEVKESAAAMVFRTSIVKMFSEDSSKLLTAGLTKKFTGLLGGFLTLPLNVPGTTYHKCIKDMKEIQKKLKDILEERLAKGVSIDEDFLGQAIKDKESQQFISEEFIIQLLFSISFASFESISTTLTLILNFLADHPDVAKELEAEHEAIRKARADPDGPITWEEYKSMNFTLNVICETLRLGSVTPALLRKTTKEIQIKGYTIPEGWTVMLVTASRHRDPEVYKDPDTFNPWRWKELDSITIQRNFMPFGGGLRHCAGAEYSKVYLCTFLHILFTKYRWRKLKGGKIARAHILRFEDGLYVNFTPKE
modifications: Cucumis melo

Test system: mogrol
Experiment: Mogroside IA and/or IE production from mogrol by glycosyltransferases expressed in S. cerevisiae, LCMS
Format: cell-based
Conditions: 10 μM mogrol, 2-4 days at 30° C.; identified by LCMS
Description: (§1) DNA was obtained through gene synthesis either through Genescript, IDT, or Genewiz. For some of the cucurbitadienol synthases, cDNA or genomic DNA was obtained through 10-60 day old seedlings followed by PCR amplification using specific and degenerate primers. DNA was cloned through standard molecular biology techniques or through yeast gap repair cloning (Joska et al., 2014) into one of the following overexpression vectors: pESC-Ura, pESC-His, or pESC-LEU. Gene expression was regulated by one of the following promoters; Gall, Gal10, Tef1, or GDS. Yeast transformation was performed using Zymo Yeast Transformation Kit II. Yeast strains were grown in standard media (YPD or SC) containing the appropriate selection with 2% glucose or 2% galactose for induction of heterologous genes. Yeast strains were grown in shake flask or 96 well plates at 30° ° C., 140-250 rpm. When indicated, lanosterol synthase inhibitor, Ro 48-8071 (Cayman Chemicals) was added (50 ug/ml). Yeast samples producing mogrol precursors, mogrol and mogrosides were processed through one of the following: • Cucurbitadienol and 11-OH Cucurbitadienol: Samples cell pellets were lysed (Yeast Buster) followed by ethyl acetate extraction, drying, and resuspension in methanol. • ·Mogrol and Mogrosides: Samples cell pellets were lysed in 50% ETOH, incubated at 80° C. for 30 min, filtered, dried and resuspended in MeOH for LCMS screening.
For analyzing Mogroside IIIE & Compound 1, the LCMS method included the use of Fluoro-phenyl 2.1×100 mm column, gradient 15 to 30% B for 6 minutes, at flow rate of 0.55 ml/min. For analyzing yeast production of mogroside I during enzyme screening, the LCMS method used a Phenomenex Kinetex Polar C18, 4.6×100 mm, 2.6 μm column, and a gradient of 25% to 55% B over 3 minutes, and 100% B at 3.5 minutes with a flow rate of 1.5 ml/min. Detection by ESI source negative mode single ion monitoring of 683.4 for mogroside I and 799.4 for mogroside II.
Various glycosyltransferase proteins were expressed in S. cerevisiae grown in the presence of 10 μM mogrol for 2-4 days at 30° C., 140-250 rpm in either shake flask or 96 well plates. Glycosyltransferases leading to production of Mogroside IA (glycosylation of C24-OH position) and/or Mogroside IE (glycosylation of C3-OH position) are provided in Table 6. DNA and protein sequences for the enzymes are provided in SEQ IDs 1050-1071 (see Table 1).

First: B1
Second: B2
The “Mogroside IA” value of the first is lower: 1605 for the first, 659331 for the second.

B3 was tested, and the “Mogroside IA” value was 200270.

Compared with B1, B2 is lower in “Mogroside IE” value: 22917 for the first, 17857 for the second.

With B3 the “Mogroside IE” value was 4690.

Test system: cucurbitadienol
Experiment: 11-OH cucurbitadienol production from cucurbitadienol by CYP450s expressed in S. cerevisiae, LCMS
Format: cell-based
Conditions: S. cerevisiae strain producing cucurbitadienol and expressing SgCPR; LCMS peak area of product vs. internal reference; hits over vector only control
Description: as §1
For analyzing 11-OH cucurbitadienol, the LCMS method included the use of C8 2.1×100 mm column, gradient 60 to 90% B for 6 minutes at flow rate of 0.55 ml/min. For the enzyme screening, the LCMS method used was a Waters Acquity UPLC Protein BEH C4, 2.1×100 mm, 1.7 μm column and a gradient of 40% to 80% over 5 minutes, 95% B from 5.1 to 5.6 minutes with a flow rate of 0.55 ml/min, and ESI source positive mode single ion monitoring of 425.4.
Additional CYP450s were expressed in S. cerevisiae strain producing cucurbitadienol and expressing SgCPR. DNA and protein sequences for the CYP450 enzymes are shown in SEQ IDs 871-890 and 1024-1049 (see Table 1).

First: B4
Second: B5
The “Peak Area 11-OH CCB” value of the first is higher: 0.9207 for the first, 0.649 for the second.

Compared with B6, B7 is lower in “Peak Area 11-OH CCB” value: 0.9893 for the first, 0.9703 for the second.
